The source of these data is US20260234242A1 (HAINAN SIMCERE ZAIMING PHARMACEUTICAL, published 2026).

In assay [1] the target is T1, human CDH6 on tumor cells (OVCAR3 cells, PA-1 cells) (human, UniProt P55285 54-790).
T1 sequence: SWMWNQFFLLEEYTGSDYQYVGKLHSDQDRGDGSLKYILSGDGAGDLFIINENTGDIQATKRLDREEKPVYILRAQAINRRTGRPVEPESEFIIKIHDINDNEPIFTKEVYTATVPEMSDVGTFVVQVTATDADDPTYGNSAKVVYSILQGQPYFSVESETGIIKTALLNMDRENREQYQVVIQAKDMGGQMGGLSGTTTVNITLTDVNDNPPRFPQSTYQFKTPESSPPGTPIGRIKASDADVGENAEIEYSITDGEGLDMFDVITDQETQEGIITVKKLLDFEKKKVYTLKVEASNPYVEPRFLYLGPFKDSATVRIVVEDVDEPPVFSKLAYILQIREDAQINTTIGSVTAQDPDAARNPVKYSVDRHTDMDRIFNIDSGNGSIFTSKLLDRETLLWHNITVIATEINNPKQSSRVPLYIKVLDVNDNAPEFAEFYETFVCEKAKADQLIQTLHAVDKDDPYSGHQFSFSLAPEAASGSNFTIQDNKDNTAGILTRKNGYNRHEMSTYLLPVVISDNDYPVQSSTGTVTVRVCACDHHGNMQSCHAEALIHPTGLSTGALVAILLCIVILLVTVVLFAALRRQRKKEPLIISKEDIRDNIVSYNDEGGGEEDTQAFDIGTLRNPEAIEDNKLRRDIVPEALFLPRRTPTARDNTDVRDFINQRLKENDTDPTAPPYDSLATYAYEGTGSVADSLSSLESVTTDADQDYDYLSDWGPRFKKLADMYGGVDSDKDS
The assay is described as follows: FACS, OVCAR3 cells, 4° C. arm of endocytosis assay, antibody diluted to 10 µg/mL. As for the experimental part:
OVCAR3 cells were cultured until a confluence of 90% was reached, the medium was removed by pipetting, the cells were washed once with PBS, and then treated with an enzyme-free cell dissociation solution (Versene, purchased from Gibco, Cat. No. 15040-066) and the cells were collected. The cells were washed once with PBS, counted, resuspended to 2×10⁶ cells/mL in an FACS buffer (PBS+2% FBS), and then added to two 96-well plates at 50 μL/well. The chimeric antibodies were diluted with FACS buffer (PBS+2% FBS) to 10 μg/mL and separately added to the two 96-well plates at 50 μL/well, and the plates were incubated at 4° C. for 1 h. After the cells were washed 3 times with PBS, the cells were resuspended in an FACS buffer. One 96-well plate was incubated at 4° C. for 1 h, and the other 96-well plate was incubated at 37° C. for 1 h. […] After the plates were centrifuged and washed 2 times with PBS, the cells were resuspended in an FACS buffer. The mean fluorescence intensity (MFI) was measured using FACS Canton II (BD). The chimeric antibodies tested all had good endocytic activity.
On the technique in general: In flow cytometry, cells or beads pass a laser one at a time.

Assay [2] addresses T1, human CDH6 on tumor cells (OVCAR3 …). The experiment in a line: FACS, OVCAR3 cells. As for the experimental part:
(§1) OVCAR3 cells with high expression of CDH6 and PA-1 cells with moderate expression of CDH6 were used to detect the binding activity of the antibodies to the cells. […] The cells were washed once with PBS, counted, resuspended to 2×10⁶ cells/mL in an FACS buffer (PBS+2% FBS), and then added to a 96-well plate at 50 μL/well. The chimeric antibodies were diluted with FACS buffer (PBS+2% FBS) and added to the 96-well plate at 50 μL/well, and the plate was incubated at 4° C. for 1 h. […] The dilution was added to the 96-well plate at 50 μL/well, and the plate was incubated at 4° C. for 1 h. After the plates were centrifuged and washed 2 times with PBS, the cells were resuspended in an FACS buffer. The mean fluorescence intensity (MFI) was measured using FACS Canton II (BD). Analysis was performed by the GraphPad Prism software, data were fitted, and EC50 values were calculated. The chimeric antibodies tested had strong binding to both OVCAR3 cells and PA-1 cells.

For assay [3] the target is unchanged. The assay is described as follows: FACS, PA-1 cells. Here is the method: as §1

B1: CHI-CDH6-14 (antibody, human IgG1, kappa, V domains shown)
VH: QIQLQQSGPELVKPGTSVKISCKASGYTFTDNYINWVRQRPGQGLEWIGWIYPGTGNSYYNEKFKGKATLTVDTSSSTAYMQFSSLTSEDSAVYLCASSYGDSFDYWGQGTTLTVSS
VL: DIQMTQTTSSLSASLGNRVTISCRASQDIRNYLNWYQQKPDGTFKLLISYTSRLHSGVPSRFSGSGSGTDYSLTVSNLEPEDIATYYCQQYSQLPWTFGGGSRLEIKR
notes: also called CHI-hCDH6-14; CH1-CDH6-14
Turning to B1, the “MFI_4° C.” value in assay [1] came to 9230 MFI. For the same molecule, in assay [2], the EC50 came out at 0.43 nM and the “Max MFI” value is 15700 MFI. Further, in assay [3], the concentration for a half-maximal effect (EC50) worked out at 0.26 nM and the “Max MFI” value is 5410 MFI.

B2: DS-H01L02 (antibody, human IgG1, kappa, V domains shown)
VH: EVQLVQSGAEVKKPGASVKVSCKASGYTFTRNFMHWVRQAPGQGLEWMGWIYPGDGETEYAQKFQGRVTITADTSTSTAYMELSSLRSEDTAVYYCARGVYGGFAGGYFDFWGQGTLVTVSS
VL: DIQMTQSPSSLSASVGDRVTITCKASQNIYKNLAWYQQKPGKAPKLLIYDANTLQTGVPSRFSGSGSGSDFTLTISSLQPEDFATYFCQQYYSGWAFGQGTKVEIKR
notes: Positive control, variable regions from WO2018212136A1; also called positive control anti-human CDH6 antibody
For B2, in assay [1], the “MFI_4° C.” value was 3830 MFI. In addition, in assay [2], a half-maximal effect (EC50) was put at 0.8 nM and the “Max MFI” value worked out at 9730 MFI. For the same molecule, in assay [3], the EC50 amounted to 1.09 nM and the “Max MFI” value was determined as 1880 MFI.

B3: CHI-CDH6-13 (antibody, human IgG1, kappa, V domains shown)
VH: DVQLQESGPGLVKPSQSLSLTCSVTGYSITKDSYWNWIRQFPGSKLEWMGFISYDGSRHYNPSLKNRISITRDTSKNQFFLQLNSVTTEDTATYYCARRDYADYWGQGTTLTVSS
VL: QIVLTQSPALMSAFPGEKVTMTCSATSSVSYIYWYQQKPRSSPKPWIYLTSNLASGVPARFSGSGSGTSYSLTINSLEAEDAATYYCQQWSSIPYTFGGGTKLEIKR
notes: also called chimeric antibody of murine CDH6-13
On to B3, for which, in assay [1], the “MFI_4° C.” value stood at 5970 MFI. Further, in assay [2], a half-maximal response (EC50) required 2.08 nM and the “Max MFI” value amounted to 17600 MFI. Also, in assay [3], the EC50 is 1.97 nM and the “Max MFI” value was determined as 4440 MFI.

B4: NOV0712 (antibody, human IgG1, kappa, V domains shown)
VH: QVQLLESGGGLVQPGGSLRLSCAASGFTFSSHGMHWVRQAPGKGLEWVSVISGSGSNTGYADSVKGRFTISRDNSKNTLYLQMNSLRAEDTAVYYCARQWGSYAFDSWGQGTLVTVSS
VL: DIQMTQSPSSLSASVGDRVTITCRASQSISSYLNWYQQKPGKAPKLLIYAVSTLQSGVPSRFSGSGSGTDFTLTISSLQPEDFATYYCQQSGTFPPTTFGQGTKVEIKR
notes: as for B2
As to B4, the “MFI_4° C.” value in assay [1] stood at 6520 MFI. In addition, in assay [2], the EC50 was 1.92 nM and the “Max MFI” value turned out to be 11500 MFI. Also, in assay [3], a half-maximal response (EC50) required 1.46 nM and the “Max MFI” value stood at 3600 MFI.

B5: CHI-CDH6-12 (antibody, human IgG1, kappa, V domains shown)
VH: EVNLVESGGGLVQPGDSLTLSCSASGFTFTDYYMSWVRQFPGKALEWLALIRNKANSYTTEYSASVKGRFTISRDNSQSILYLQMNALRAEDSATYYCARDSYYSHDGFAYWGQGTLVTVSA
VL: DIVLTQSPASLAVSLGQRATISCRASKSVSTSSYTYMHWYQQKPGQPPKLLIKFASYLESGVPARFSGSGSGTDFTLNIHPVEEEDAATYYCQHSREFPFTFGTGTKLEIKR
notes: also called CH1-CDH6-12; chimeric antibody of murine CDH6-12
Regarding B5, the “MFI_4° C.” value in assay [1] was found to be 5740 MFI. Also, in assay [2], the EC50 was 2.22 nM and the “Max MFI” value was determined as 12500 MFI. Besides, in assay [3], the EC50 was determined as 2.27 nM and the “Max MFI” value amounted to 3150 MFI.

For orientation: EC50 means the concentration at which the effect is half-maximal. A low value points to an effect from little substance.
